{"source": "patent US20250003966", "test_system": "substrate protein (Seq Id no. 1) (URSCREENSARS-COV-2)", "data": [{"substance": "trypsin", "values": [{"measurement": "cleavage bands on 15% SDS-PAGE (Sypro Ruby stain)", "result": "We could clearly see the cleavage bands of expected molecular weight after gel staining"}]}]}
